The record followed here is patent US20230085439A1 (UNIVERSITY OF GEORGIA RESEARCH FOUNDATION, published 2023).

Assay [1] addresses T1, hMPV A1 F (human metapneumovirus). As to the kind of experiment: ELISA on coated antigen, mAb titrated; EC50 box, key 1.
Assay [2] addresses T2, hMPV A2 F (human metapneumovirus). As to the kind of experiment: ELISA on coated antigen, mAb titrated; EC50 box, key 2.
Assay [3] concerns the target T3, hMPV B1 F (human metapneumovirus). As to the kind of experiment: ELISA on coated antigen, mAb titrated; EC50 box, key 3. For orientation: In an ELISA, binding on a coated surface is turned into a signal by an enzyme label.
The target in assay [4] is T4, hMPV B2 F (human metapneumovirus). As to the kind of experiment: ELISA on coated antigen, mAb titrated; EC50 box, key 4.
Assay [5] addresses hMPV F protein of hMPV A2 strain CAN/97-83 (human metapneumovirus, UniProt Q6WB98 19-539). As to the kind of experiment: cell-based or functional assay.
Assay [6] deals with hMPV F protein of hMPV B2 strain TN/93-32 (human metapneumovirus). As to the kind of experiment: cell-based or functional assay.
Assay [7] concerns the target hMPV B2 F GCN4.
Assay [8] deals with T1, hMPV A1 F.
For assay [9], the target named is T2, hMPV A2 F.
Assay [10] has as its target T3, hMPV B1 F.
The target of assay [11] is T4, hMPV B2 F.
For assay [12], the target named is hMPV B2 F-GCN4 dFP 6R (human metapneumovirus).
Assay [13] deals with T5, monomeric hMPV B2 F protein treated with trypsin (human metapneumovirus). As to the kind of experiment: ELISA on trypsin-treated monomeric and trimeric hMPV B2 F.
The target of assay [14] is T6, trimeric hMPV B2 F protein treated with trypsin (human metapneumovirus). As to the kind of experiment: ELISA on coated antigen, mAb titrated; panel hMPV B2 F trimer (trypsin), key 2.
Assay [15] concerns the target T5, monomeric hMPV B2 F protein treated …. As to the kind of experiment: ELISA on coated antigen, mAb titrated; panel hMPV B2 F monomer (trypsin), key 2.
Assay [16] addresses T7, hMPV 130-BV (human metapneumovirus).
T7 construct: also called hMPV 130-BV F; hMPV F 130-BV
As to the kind of experiment: ELISA on coated antigen, mAb titrated; EC50 list entry 5 of 7 (marker of hMPV 130BV).

Assay [17] has as its target T6, trimeric hMPV B2 F protein treated with …. As to the kind of experiment: ELISA on coated antigen, mAb titrated; panel hMPV B2 F trimer (trypsin), key 1.
Assay [18] addresses T5, monomeric hMPV B2 F protein treated …. As to the kind of experiment: ELISA on coated antigen, mAb titrated; panel hMPV B2 F monomer (trypsin), key 1.

Read-outs that look alike come from different tables or passages of the source.

B1: MPV201 (antibody, V domains shown)
VH: QVQLVQSGGGGVQPGRSLRLSCAASGFIFSDYGMHWVRQAPGKGLEWVAVISYDGSNQYYADSVKGRFTISRDNSRNTLYLQMNSLRVEDTAVYYCAKDQGRRYYYSSGYLDYWGQGTLVTVSS
VL: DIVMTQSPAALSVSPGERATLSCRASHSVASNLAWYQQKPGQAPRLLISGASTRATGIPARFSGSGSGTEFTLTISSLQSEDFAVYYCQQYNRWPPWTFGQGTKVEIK
notes: also called mAb MPV201
On to B1, for which the EC50 in [1] was 0.104 µg/mL; in [2] it was 0.14 µg/mL; in [3], 0.042 µg/mL; in [4] it was 0.089 µg/mL.

B2: MPV364 (antibody, V domains shown)
VH: QVQLVQSGAEVKKPGASVKVSCKASGYTFTHDSIHWVRQAPGQRLEWMGWINVGNGDTKSSQKFQDRLTITRDTSANTAYMEVRSLKYEDTAMYFCARVDQYCIGGVCYGGKNWFDPWGQGTLVTVSS
VL: SYELNQPPSVSVAPGQTAMITCGGYYVGVKSLHWYQQKAGQAPVLVVHDDSDRPSGIPERFSGSKSGDTATLIISRVEAGDEADYYCQVWDRDSDHPYVFGTGTTVTVL
notes: also called mAb MPV364; hMPV364
As to B2, the “IC50, plaque neutralization” value was 0.008 µg/mL in [5] and 0.018 µg/mL in assay [6]. Besides, the concentration for a half-maximal effect (EC50) in assay [1] was 0.25 µg/mL; in assay [2], 0.44 µg/mL; in assay [3], 0.2 µg/mL.

B3: MPV458 (antibody, V domains shown)
VH: QGKLVESGGGVIQPGRSLRLSCAASGFDFSRYGLHWVRQAPGKGLEWVAVIVYAGSNKYYADSVKGRFTISKDNSKNTMHLQMSDLRTEDTAVYYCARDQAFDLWGQGTMVTVSS
VL: DIQMTQSPASLSASVGDRVTITCQASQGISRSVNWYQQKPGKAPKLLIFDASHLERGVPSRFSGSGYGTDFTFTISSLQPEDIATYYCQQYDNLRISFGQGTRLEIK
notes: also called mAb MPV458; MPV458 IgG
B3: the EC50 was 0.2 µg/mL in assay [7]; 0.75 µg/mL in assay [8]; 0.39 µg/mL in [9]; 0.39 µg/mL in [10]; 0.6 µg/mL in assay [11]; 0.37 µg/mL in [12]. The EC50 in assay [14] was 0.9 µg/mL; in assay [15], 0.25 µg/mL; in assay [16] it was 0.24 µg/mL. Also, the “50% inhibitory concentration (IC50), plaque neutralization” value was found to be 0.033 µg/mL in assay [5] and 0.49 µg/mL in assay [6]. For the same molecule, the “fold EC50, monomeric against trimeric hMPV B2 F” value in assay [13] is about 4 fold lower.

B4: MPE8 (antibody, V domains shown)
VH: EVQLVESGGGLVKPGGSLRLSCAASGFTFSSYSMNWVRQAPGKGLEWVSSISASSSYSDYADSAKGRFTISRDNAKTSLFLQMNSLRAEDTAIYFCARARATGYSSITPYFDIWGQGTLVTVSS
VL: QSVVTQPPSVSGAPGQRVTISCTGSSSNIGAGYDVHWYQQLPGTAPKLLIYDNNNRPSGVPDRFSASKSGTSASLAITGLQAEDEADYYCQSYDRSLSGVFGTGTKVTVL
notes: also called mAb MPE8; MPE8 antibody
In the case of B4, the concentration giving a half-maximal response (EC50) in assay [7] amounted to 4.7 µg/mL; in assay [8], 14 µg/mL; in assay [9] it was 4.3 µg/mL; in [10] it was 3.1 µg/mL; in assay [11], 36 µg/mL; in assay [12], 5.9 µg/mL. In assay [16], this molecule had an EC50 of 1.8 µg/mL.

B5: MPV314 (antibody, V domains shown)
VH: QVQLVQSGGGVVQPGRSLRLSCAASGFSFSDYGMDWVRQAPGKGLEWVAVISYDGSNQYYADSVKGRFTVSRDNSKNTVYLQMNSLRAEDTAVYFCAKDESRRYYYSSGIHSHWGQGTLVTVSS
VL: DIVMTQSPATLSVSPGERATLSCRASQSVSRNLAWYQQKPGQAPRLLIFGASTRATGIPARFSGSASGTEFTLTISSLQSEDFAVYYCHQYNYWPPGTFGQGTRLEIK
notes: also called mAb MPV314
Consider B5, for which the concentration giving a half-maximal response (EC50) stood at 0.096 µg/mL in [1], 0.102 µg/mL in [2] and 0.039 µg/mL in assay [3].

B6: MPV196 (antibody, V domains shown)
VH: QVQLQQWGAGLLKPSETLSLTCAVYGGSFSGYSWTWIRQPPGKGLEWIGEINHSGSTNYNPSLKSRVTISIDTSRNQFSLKLISVTAADTAVYYCARGVRGGYNLWHFDVWGQGTLVTVSS
VL: SYELSQSPSVSVSPGQTARITCSGDKLGNKYASWYQQKPGQSPVLVIYQDDKRPSGIPERFSGSNSGNTATLTIGGTQAMDEADYSCQAWDGRTAVVFGGGTKLTVL
notes: also called mAb MPV196
As for B6, the EC50 was found to be 0.18 µg/mL in assay [7]; 0.27 µg/mL in assay [8]; 0.17 µg/mL in [9]; 0.12 µg/mL in assay [10]; 0.44 µg/mL in assay [11]; 0.15 µg/mL in [12]. The half-maximal effective concentration (EC50) was 0.15 µg/mL in [1]; 0.204 µg/mL in [2]; 0.077 µg/mL in [3]; 0.136 µg/mL in assay [4]; 0.17 µg/mL in assay [17]; 0.091 µg/mL in assay [18]. The molecule further showed a 50% effective concentration (EC50) in assay [16] of 0.14 µg/mL.

The EC50 is the midpoint of the concentration-response curve.
